B1: Azoarcus group I ribozyme (parent)
chain: GUGCCUUGCGCCGGGAAACCACGCAAGGGAUGGUGUCAAAUUCGGCGAAACCUAAGCGCCCGCCCGGGCGUAUGGCAACGCCGAGCCAAGCUUCGGCGCCUGCGCCGAUGAAGGUGUAGAGACUAGACGGCACCCACCUAAGGCAAACGCUAUGGUGAAGGCAUAGUCCAGGGAGUGGCGAAAGUCACACAAACCGG

Variants of: B1
Experiment: reverse-splicing fitness (ratio to wild type); higher = more active; in vitro selection; Mg2+ level not given
In short: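 An in vitro group I ribozyme library with randomized positions was T7-transcribed and gel-purified. In triplicate, 10 pmol RNA in EPPS pH 7.5 was reacted with 50 pmoles of a 30-nt RNA substrate for 1 h at 37 °C across several added MgCl2 levels (1–48 mM), then stopped with EDTA. Products were reverse transcribed from a substrate-complementary primer, PCR-amplified and sequenced (HiSeq 4000). Fitness is a variant's read proportion after selection over that before, normalised to wild type.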

Variant	reverse-splicing fitness
GUGCCUUGCGCCGGGAAACCACGCAAGGGAUGGUGUCAAAUUCGGCGAAACCUAAGCGCCCGCCCGGGCGUAUGGCAACGCGGAGCCAAGCUUCGGCGCCUGCGCCGAUGAAGGUGUAGAGACUAGACGGCACCCACCUAAGGCCAACGAUAUGGUGAAGGCAUAGUCAAGGGAGAGGCGAAAGUCACACAAACCGG [C82G A145C C150A C169A U176A]	0.0106
GUGCCUUGCGCCGGGAAACCACGCAAGGGAUGGUGUCAAAUUCGGCGAAACCUAAGCGCCCGCCCGGGCGUAUGGCAACGCGGAGCCAAGCUUCGGCGCCUGCGCCGAUGAAGGUGUAGAGACUAGACGGCACCCACCUAAGGCCAACGAUAUGGUGAAGGCAUAGUCAAGGGAGCGGCGAAAGUCACACAAACCGG [C82G A145C C150A C169A U176C]	0.0049
GUGCCUUGCGCCGGGAAACCACGCAAGGGAUGGUGUCAAAUUCGGCGAAACCUAAGCGCCCGCCCGGGCGUAUGGCAACGCGGAGCCAAGCUUCGGCGCCUGCGCCGAUGAAGGUGUAGAGACUAGACGGCACCCACCUAAGGCCAACGAUAUGGUGAAGGCAUAGUCAAGGGAGGGGCGAAAGUCACACAAACCGG [C82G A145C C150A C169A U176G]	0.00515
GUGCCUUGCGCCGGGAAACCACGCAAGGGAUGGUGUCAAAUUCGGCGAAACCUAAGCGCCCGCCCGGGCGUAUGGCAACGCGGAGCCAAGCUUCGGCGCCUGCGCCGAUGAAGGUGUAGUGACUAGACGGCACCCACCUAAGGCAAACGCUAUGGUGAAGGCAUAGUCUAGGGAGGGGCGAAAGUCACACAAACCGG [C82G A120U C169U U176G]	0.00154
GUGCCUUGCGCCGGGAAACCACGCAAGGGAUGGUGUCAAAUUCGGCGAAACCUAAGCGCCCGCCCGGGCGUAUGGCAACGCGGAGCCAAGCUUCGGCGCCUGCGCCGAUGAAGGUGUAGUGACUAGACGGCACCCACCUAAGGCAAACGCUAUGGUGAAGGCAUAGUCUAGGGAGCGGCGAAAGUCACACAAACCGG [C82G A120U C169U U176C]	0.00518
GUGCCUUGCGCCGGGAAACCACGCAAGGGAUGGUGUCAAAUUCGGCGAAACCUAAGCGCCCGCCCGGGCGUAUGGCAACGCGGAGCCAAGCUUCGGCGCCUGCGCCGAUGAAGGUGUAGUGACUAGACGGCACCCACCUAAGGCAAACGCUAUGGUGAAGGCAUAGUCUAGGGAGAGGCGAAAGUCACACAAACCGG [C82G A120U C169U U176A]	0.00406
GUGCCUUGCGCCGGGAAACCACGCAAGGGAUGGUGUCAAAUUCGGCGAAACCUAAGCGCCCGCCCGGGCGUAUGGCAACGCGGAGCCAAGCUUCGGCGCCUGCGCCGAUGAAGGUGUAGAGACUAGACGGCACCCACCUAAGGCCAACGAUAUGGUGAAGGCAUAGUCUAGGGAGGGGCGAAAGUCACACAAACCGG [C82G A145C C150A C169U U176G]	0.00493
GUGCCUUGCGCCGGGAAACCACGCAAGGGAUGGUGUCAAAUUCGGCGAAACCUAAGCGCCCGCCCGGGCGUAUGGCAACGCGGAGCCAAGCUUCGGCGCCUGCGCCGAUGAAGGUGUAGAGACUAGACGGCACCCACCUAAGGCCAACGAUAUGGUGAAGGCAUAGUCUAGGGAGAGGCGAAAGUCACACAAACCGG [C82G A145C C150A C169U U176A]	0.0123
GUGCCUUGCGCCGGGAAACCACGCAAGGGAUGGUGUCAAAUUCGGCGAAACCUAAGCGCCCGCCCGGGCGUAUGGCAACGCGGAGCCAAGCUUCGGCGCCUGCGCCGAUGAAGGUGUAGAGACUAGACGGCACCCACCUAAGGCCAACGAUAUGGUGAAGGCAUAGUCUAGGGAGCGGCGAAAGUCACACAAACCGG [C82G A145C C150A C169U U176C]	0.00742
GUGCCUUGCGCCGGGAAACCACGCAAGGGAUGGUGUCAAAUUCGGCGAAACCUAAGCGCCCGCCCGGGCGUAUGGCAACGCGGAGCCAAGCUUCGGCGCCUGCGCCGAUGAAGGUGUAGUGACUAGACGGCACCCACCUAAGGCAAACGCUAUGGUGAAGGCAUAGUCCAGGGAGAGGCGAAAGUCACACAAACCGG [C82G A120U U176A]	0.0729
GUGCCUUGCGCCGGGAAACCACGCAAGGGAUGGUGUCAAAUUCGGCGAAACCUAAGCGCCCGCCCGGGCGUAUGGCAACGCGGAGCCAAGCUUCGGCGCCUGCGCCGAUGAAGGUGUAGUGACUAGACGGCACCCACCUAAGGCAAACGCUAUGGUGAAGGCAUAGUCCAGGGAGCGGCGAAAGUCACACAAACCGG [C82G A120U U176C]	0.113
GUGCCUUGCGCCGGGAAACCACGCAAGGGAUGGUGUCAAAUUCGGCGAAACCUAAGCGCCCGCCCGGGCGUAUGGCAACGCGGAGCCAAGCUUCGGCGCCUGCGCCGAUGAAGGUGUAGUGACUAGACGGCACCCACCUAAGGCAAACGCUAUGGUGAAGGCAUAGUCCAGGGAGGGGCGAAAGUCACACAAACCGG [C82G A120U U176G]	0.0201
GUGCCUUGCGCCGGGAAACCACGCAAGGGAUGGUGUCAAAUUCGGCGAAACCUAAGCGCCCGCCCGGGCGUAUGGCAACGCGGAGCCAAGCUUCGGCGCCUGCGCCGAUGAAGGUGUAGAGACUAGACGGCACCCACCUAAGGCCAACGAUAUGGUGAAGGCAUAGUCGAGGGAGAGGCGAAAGUCACACAAACCGG [C82G A145C C150A C169G U176A]	0.0223
GUGCCUUGCGCCGGGAAACCACGCAAGGGAUGGUGUCAAAUUCGGCGAAACCUAAGCGCCCGCCCGGGCGUAUGGCAACGCGGAGCCAAGCUUCGGCGCCUGCGCCGAUGAAGGUGUAGAGACUAGACGGCACCCACCUAAGGCCAACGAUAUGGUGAAGGCAUAGUCGAGGGAGCGGCGAAAGUCACACAAACCGG [C82G A145C C150A C169G U176C]	0.0105
GUGCCUUGCGCCGGGAAACCACGCAAGGGAUGGUGUCAAAUUCGGCGAAACCUAAGCGCCCGCCCGGGCGUAUGGCAACGCGGAGCCAAGCUUCGGCGCCUGCGCCGAUGAAGGUGUAGAGACUAGACGGCACCCACCUAAGGCCAACGAUAUGGUGAAGGCAUAGUCGAGGGAGGGGCGAAAGUCACACAAACCGG [C82G A145C C150A C169G U176G]	0.00624
GUGCCUUGCGCCGGGAAACCACGCAAGGGAUGGUGUCAAAUUCGGCGAAACCUAAGCGCCCGCCCGGGCGUAUGGCAACGCGGAGCCAAGCUUCGGCGCCUGCGCCGAUGAAGGUGUAGAGACUAGACGGCACCCACCUAAGGCCAACGGUAUGGUGAAGGCAUAGUCGAGGGAGAGGCGAAAGUCACACAAACCGG [C82G A145C C150G C169G U176A]	0.00973
GUGCCUUGCGCCGGGAAACCACGCAAGGGAUGGUGUCAAAUUCGGCGAAACCUAAGCGCCCGCCCGGGCGUAUGGCAACGCGGAGCCAAGCUUCGGCGCCUGCGCCGAUGAAGGUGUAGAGACUAGACGGCACCCACCUAAGGCCAACGGUAUGGUGAAGGCAUAGUCCAGGGAGUGGCGAAAGUCACACAAACCGG [C82G A145C C150G]	0.0512
GUGCCUUGCGCCGGGAAACCACGCAAGGGAUGGUGUCAAAUUCGGCGAAACCUAAGCGCCCGCCCGGGCGUAUGGCAACGCGGAGCCAAGCUUCGGCGCCUGCGCCGAUGAAGGUGUAGAGACUAGACGGCACCCACCUAAGGCCAACGAUAUGGUGAAGGCAUAGUCCAGGGAGUGGCGAAAGUCACACAAACCGG [C82G A145C C150A]	0.0227
GUGCCUUGCGCCGGGAAACCACGCAAGGGAUGGUGUCAAAUUCGGCGAAACCUAAGCGCCCGCCCGGGCGUAUGGCAACGCGGAGCCAAGCUUCGGCGCCUGCGCCGAUGAAGGUGUAGAGACUAGACGGCACCCACCUAAGGCCAACGGUAUGGUGAAGGCAUAGUCAAGGGAGAGGCGAAAGUCACACAAACCGG [C82G A145C C150G C169A U176A]	0.00807
GUGCCUUGCGCCGGGAAACCACGCAAGGGAUGGUGUCAAAUUCGGCGAAACCUAAGCGCCCGCCCGGGCGUAUGGCAACGCGGAGCCAAGCUUCGGCGCCUGCGCCGAUGAAGGUGUAGAGACUAGACGGCACCCACCUAAGGCCAACGGUAUGGUGAAGGCAUAGUCAAGGGAGCGGCGAAAGUCACACAAACCGG [C82G A145C C150G C169A U176C]	0.00634
GUGCCUUGCGCCGGGAAACCACGCAAGGGAUGGUGUCAAAUUCGGCGAAACCUAAGCGCCCGCCCGGGCGUAUGGCAACGCGGAGCCAAGCUUCGGCGCCUGCGCCGAUGAAGGUGUAGAGACUAGACGGCACCCACCUAAGGCCAACGGUAUGGUGAAGGCAUAGUCAAGGGAGGGGCGAAAGUCACACAAACCGG [C82G A145C C150G C169A U176G]	0.00487
GUGCCUUGCGCCGGGAAACCACGCAAGGGAUGGUGUCAAAUUCGGCGAAACCUAAGCGCCCGCCCGGGCGUAUGGCAACGCGGAGCCAAGCUUCGGCGCCUGCGCCGAUGAAGGUGUAGAGACUAGACGGCACCCACCUAAGGCCAACGAUAUGGUGAAGGCAUAGUCCAGGGAGCGGCGAAAGUCACACAAACCGG [C82G A145C C150A U176C]	0.0216
GUGCCUUGCGCCGGGAAACCACGCAAGGGAUGGUGUCAAAUUCGGCGAAACCUAAGCGCCCGCCCGGGCGUAUGGCAACGCGGAGCCAAGCUUCGGCGCCUGCGCCGAUGAAGGUGUAGAGACUAGACGGCACCCACCUAAGGCCAACGAUAUGGUGAAGGCAUAGUCCAGGGAGAGGCGAAAGUCACACAAACCGG [C82G A145C C150A U176A]	0.0237
GUGCCUUGCGCCGGGAAACCACGCAAGGGAUGGUGUCAAAUUCGGCGAAACCUAAGCGCCCGCCCGGGCGUAUGGCAACGCGGAGCCAAGCUUCGGCGCCUGCGCCGAUGAAGGUGUAGAGACUAGACGGCACCCACCUAAGGCCAACGAUAUGGUGAAGGCAUAGUCCAGGGAGGGGCGAAAGUCACACAAACCGG [C82G A145C C150A U176G]	0.0117
GUGCCUUGCGCCGGGAAACCACGCAAGGGAUGGUGUCAAAUUCGGCGAAACCUAAGCGCCCGCCCGGGCGUAUGGCAACGCGGAGCCAAGCUUCGGCGCCUGCGCCGAUGAAGGUGUAGAGACUAGACGGCACCCACCUAAGGCCAACGGUAUGGUGAAGGCAUAGUCAAGGGAGUGGCGAAAGUCACACAAACCGG [C82G A145C C150G C169A]	0.00875
GUGCCUUGCGCCGGGAAACCACGCAAGGGAUGGUGUCAAAUUCGGCGAAACCUAAGCGCCCGCCCGGGCGUAUGGCAACGCGGAGCCAAGCUUCGGCGCCUGCGCCGAUGAAGGUGUAGAGACUAGACGGCACCCACCUAAGGCCAACGGUAUGGUGAAGGCAUAGUCGAGGGAGUGGCGAAAGUCACACAAACCGG [C82G A145C C150G C169G]	0.00714
GUGCCUUGCGCCGGGAAACCACGCAAGGGAUGGUGUCAAAUUCGGCGAAACCUAAGCGCCCGCCCGGGCGUAUGGCAACGCGGAGCCAAGCUUCGGCGCCUGCGCCGAUGAAGGUGUAGAGACUAGACGGCACCCACCUAAGGCCAACGCUAUGGUGAAGGCAUAGUCCAGGGAGUGGCGAAAGUCACACAAACCGG [C82G A145C]	0.45
GUGCCUUGCGCCGGGAAACCACGCAAGGGAUGGUGUCAAAUUCGGCGAAACCUAAGCGCCCGCCCGGGCGUAUGGCAACGCGGAGCCAAGCUUCGGCGCCUGCGCCGAUGAAGGUGUAGAGACUAGACGGCACCCACCUAAGGCCAACGAUAUGGUGAAGGCAUAGUCAAGGGAGUGGCGAAAGUCACACAAACCGG [C82G A145C C150A C169A]	0.00782
GUGCCUUGCGCCGGGAAACCACGCAAGGGAUGGUGUCAAAUUCGGCGAAACCUAAGCGCCCGCCCGGGCGUAUGGCAACGCGGAGCCAAGCUUCGGCGCCUGCGCCGAUGAAGGUGUAGAGACUAGACGGCACCCACCUAAGGCCAACGAUAUGGUGAAGGCAUAGUCUAGGGAGUGGCGAAAGUCACACAAACCGG [C82G A145C C150A C169U]	0.00875
GUGCCUUGCGCCGGGAAACCACGCAAGGGAUGGUGUCAAAUUCGGCGAAACCUAAGCGCCCGCCCGGGCGUAUGGCAACGCGGAGCCAAGCUUCGGCGCCUGCGCCGAUGAAGGUGUAGAGACUAGACGGCACCCACCUAAGGCCAACGAUAUGGUGAAGGCAUAGUCGAGGGAGUGGCGAAAGUCACACAAACCGG [C82G A145C C150A C169G]	0.00807
